This data set can be described thus: soluble on expression in E. coli; label from the status in PepcDB or PDB records.
In the case of “MIQPRIRQNPFETYEEVAEGFEDLLAPLELFFDREYQGHLDLGTHGTVYSKGTRDAEAFLRPLWGLGPYVTQNESEYLNDFLTGIIEGTDPESSSYWGKTKDYDQLIVEMAALSTFLLLNKEKTWDQLTKEQQNNLHSWLIQANENIIPPNNWHFFRVLLNLAMKHCEMPYSKEQIAVDLAVIDRFYVGNGWYYDGVETQVDYYVSFAIHYYSLLYCRFAPEDTARVAIMKERATLFAQEFKYWFTQPGEAIPFGRSLTYRFAQVSFFSALVFADVEALPWGEIKGLISRHLHQWMNKDIFTTDGLLSVGYDYQNMVFAEGYNGPGSPYWAFKTFILLAVPKDHPYWQAETQPISFPEKHLPSPESRNYYQVNDAGTHGLMFPAGQFINYQAHAHDKYSKFVYSSHFGFSTIKSDYWYYEGAYDNCLALAEDDHYFRTKGLDDQYEILDDRIIHQWHPWSDVAIKTTIVPLEGQHLRIHEIETQRALVAYEGGFSIPLFDEKVTCVSDQMAEVKNAKGVSKVENINGFSEAAIIRTEPNTNLLYPLTELPYLKANLSKGKHLLISLVTGVLPNEQIEPVKVRLKENQLLVEEKVVILGN”, the “soluble on expression in E. coli” value is on record as “soluble”. For the sequence “MGSDKIHHHHHHMFVIWSHRTGFIMSHQLTFADSEFSSKRRQTRKEIFLSRMEQILPWQNMVEVIEPFYPKAGNGRRPYPLETMLRIHCMQHWYNLSDGAMEDALYEIASMRLFARLSLDSALPDRTTIMNFRHLLEQHQLARQLFKTINRWLAEAGVMMTQGTLVDATIIEAPSSTKNKEQQRDPEMHQTKKGNQWHFGMKAHIGVDAKSGLTHSLVTTAANEHDLNQLGNLLHGEEQFVSADAGYQGAPQREELAEVDVDWLIAERPGKVRTLKQHPRKNKTAINIEYMKASIRARVEHPFRIIKRQFGFVKARYKGLLKNDNQLAMLFTLANLFRADQMIRQWERSH”, the “soluble on expression in E. coli” value is “not soluble”. “MSLENGVLKVGLCAAWPPFESRNETTGEIEGFDVDLAKALGEELGVEVEIIDAEWQALLGGLSKGDYDTLITCMSKKEASVENVEMSDVYYELNDVIVVRNDNNEINSVSDLSGKIVGVQLGSGSEQAVDALSGIQEIKRYNYNPEAMIDLQNNRSDAVVVGYTYALSEISKYPDLKVLDTPVASAEIVMVQKEGAEELTAKLNEALSNIKENGKYDEIQDKWLSLEEGHHHHHH”: the “soluble on expression in E. coli” value is “soluble”. With “MNIGIIGTGNMGNILIDAFLETRAVKPSCLTIINRTPAKAYHIKEKYPSVHIAKTIPEVIEQSQLIFICVKPIDIYPILKKYAEHFSDETCLVSITSPISPSQLETLVPCHVARIIPSITNRALSGASLFTFGDNCSEEWQQKLLRLFKNISTPLVIEEDITRVSSDIASCGPAFFSYLLQCFINAAVDKTNITHEEATTLVSEMVVGMGKLLEKEIFTLPTLQEKVCVKGGVTGEGIRVLEEHVGDMFHKLIERTHEKFDEDLECVDQQFNKHT”, the “soluble on expression in E. coli” value is “not soluble”. “MNPNTVPTPARGAIRWEAHTCLPLLPNQDMSALLRYRDNGFHHVSVNVGMDMTAVGDVMQVIAGFRQWLIKHPENFMLAGTLADLQRARVQDKLAVSFDLEGSNMLLQDQAMVRLYADLGVRQMLLAYNLDNSCAGGCHGSGMGLTALGREFVGAINSAGIVMDCSHASKRASMEIIELSQRPVVFSHTNIKAVYDHPRTVDDEQIMACVESGGVIGLTGMGIFLGDPQASVEAFVRQIDYLAERAGTAHIGLGLDIELHPDDKDLAEGVNEDDWWPKEFYGGINGHRQLQPEALGQVAEALLRIGYDAAQINGIFGGNFMRVAQATWP”: the “soluble on expression in E. coli” value is “not soluble”.

As to “TMIAIKPTKLKDFSSLMQLDVQEEQIGFAKPFEQAYQKRNKSEVFFTIYSDYLTVGYLIIDKGFAQHAPFAMRHELGLNYLMIDRRFQRQGIGAEALKKLFVYAYTIDPESTSLCVTVPNSHQGALDFFLACGFTNTEKAIYGEQEKEWLMRHPL”, the “soluble on expression in E. coli” value is “not soluble”. In the case of “MSLTASQQPTASQDPTRIDALVIGAGFGGMYAVHKLSGMGLSVQGFEAGGDVGGVWYWNRYPGARCDLMSLDYCYSFSPDIEQEWTWSEQFAAQSEILAYANFVADRLDLRRHFLFETWVTGAAYDEAANVWRVTVDDGRVFEATYCVMASGPLSIPKGVPFDGADDFKGEILLAAKWPHTPVSFEGKRVGLVGTGSTGIQIVPEVAKTAGALTVFQRTPSFTLPMRNVTLEPDYVAELKRNYAGIRQVARNSPLGGVRPQSTRPFFSVTPEQRRALMEDSWARGGLSFLGTFSDLLVNPEANEQVAEFVRSKISEVVTDPVTAEKLKPRGYPIFARRPCLDTHYYETFNLPHVKLHDCLESPIVKITPAGLLTETGEVELDVLIFATGYDGLTGALLNFDVVGRGGLQLRDKWRDGAKSHLGLMIASFPNLFLVCGPNGPAALANIITLDQQNIDWIADAITHMRQEGLATIEPTEGAEQGWMDMVYGMAELTLVSKANTWYVGGNISGKPRGLSMYTGGFQRYSEACRLAAEKGYEDFVFEKAATKQGARSEGHHHHHH”, the “soluble on expression in E. coli” value is given as “soluble”. For the sequence “GPGSMSTPNLDALLGVPLAAELVARAGGLLALCKLSDAALRMLGTEEFQSIASSSRARQLHAGLLLKAPLFTNAFGDEEEVDTTDRKAAQKGAAQLGRKCALVAKADLAGAFSDGSLGEAEKEKLNAAFTRLLAEGKVTAEDTQALAAPFVYVHGDAAKHRRGGVKERKKRESQQESISVVARATQRVRMGVSEEEQVQQLLQREDIRSEFAKERAQQLLKESRKRARESVHDEYDDLQNISL”, the “soluble on expression in E. coli” value is on record as “not soluble”. On to “MGSKISIINHINTIRYYLKKNEVEDKVEDPAGAAEPESTEAFGTFISPSTGMEFIMAPAGEFLMGSSPEEKGRSYSESPVHRVTIKNPFYIGKYQVTQKQWKTIMGTSPSNFNEDFRPVELVSWEDVQEFIGKLNAMENTTKYRLPSEAEWEYACRAGKQSRYFFGEDESKLGDYAWYARNAGRKTHPAGRKKPNRWGLYDMCGNVWEWVQDSWHEDYNGAPSDGSAWEDGNSSNRVSRGGSWYCSTNSCRSASRFSREPEKHLANLGFRLVKELLEHHHHHH”, for which the “soluble on expression in E. coli” value is recorded as “not soluble”. “MNENWNWSLVDKVVYINLKERTDRNEHIKKELEKVCFPPEKIIRFEAIRAGSGFIGCAKSHLAVLKMAQENNWRNILILEDDMVFEDDDETIIRTNNFLSKLNNIHWDAAFLSASYYIVNAIDDNFFKVNFAYLANSYLVNNHYYEKLINNYTESVQRLTNGESSSEYGLDSNWLKIMKIDNWYGIYPVIGYQRTDISDIEYKEIDRTHQFTRTFDKMKAYGSK”: the “soluble on expression in E. coli” value is on record as “soluble”. Turning to “MITTGKVWKFGDDISTDEITPGRYNLTKDPKELAKIAFIEVRPDFARNVRPGDVVVAGKNFGIGSSRESAALALKALGIAGVIAESFGRIFYRNAINIGIPLLLGKTEGLKDGDLVTVNWETGEVRKGDEILMFEPLEDFLLEIVREGGILEYIRRRGDLCIR”, the “soluble on expression in E. coli” value is given as “soluble”. “MAGGARDDLAEKMAGEVALSDDPGATLRKWRTDFDVAQTELADELDVSPSVVSDYESGRRDNPGIGVVRRLVVALLDIDENRGGDHIRQHARVLSAGFDSDVVHDLREYSANVGVERVYDAIDAEELFRGSQDTVAGHTVINSIAAITRLSSDEFYQLYGQSTNRALVFTNVTRGESPLVALRVVSPTPNAVILHGLEDEAVWEHAQDLARIDDFSLAITDIELEDLLGGLRELP”: the “soluble on expression in E. coli” value was “not soluble”. With “MGFAFKRGISTPDLALITRQLATLVQSGMPLEECLRAVAEQSEKPRIRTMLVAVRAKVTEGYTLSDSLGDYPHVFDELFRSMVAAGEKSGHLDSVLERLADYAENRQKMRSKLQQASENLYFQ”, the “soluble on expression in E. coli” value is recorded as “soluble”. As for “MSVQPETMPDSSNKTNPTVKEVIAYLADKFPLCFSIEGEAKPLKVGLSQDLAEALADDEKVSKTLLRQVLRSYTMSWRYLACCKANAQRIGLQGENVGIVDEAQAEHAAQSLAVAKEAYAARKAEQRKEQRKDFFKKKAREERNAKTMNKAVKKGSPKKDTFAKATAESLAVLTHKFSKGNK”, the “soluble on expression in E. coli” value is “not soluble”. The value for “MGSDKIHHHHHHMKTHIFLYPGEGIGPELFESLRAFFSLFNDKLEYHYLASFQDLSSLNKPYYVLCGPFASEQEQTDVLNPLHPLYAHTLVPHDKKGNASILALPLTQKQTTGALKDLSVIAACFDPAHKVVMVQQYQEQPQIWEDAMKAWTKLAFSNHDWKFEDANVLSFIKHSQYSKANQVVSSMEGANVLKALYASIYKSLNRAHTLIEVEDGYITMPMHGHAPDIVGMGIANPYALLMAFCRLLTVAGYEELAQQVENQIESAFYENRDQTTPDQGGVLNTEKYMAMMVECINL” was “not soluble”; that for “MRGKVYLVGAGFGGPEHLTLKALRVLEVAEVVLHDRLVHPGVLALAKGELVPVGKEGYGGKTPQEAITARLIALAREGRVVARLKGGDPMVFGRGGEEALALRRAGIPFEVVPGVTSAVGALSALGLPLTHRGLARSFAVATGHDPALPLPRADTLVLLMPLHTLGGLKERLLERFPPETPLALLARVGWPGEAVRLGRVEDLPGLGEGLPSPALLVVGKVVGLYGELLPKDHGL” was “soluble”; that for “MSVSSRGAASPAHRTAPTKWLFTKEEMKKTASIQEGMSREEELASRQMAAAFIQEMIDGLNNVKDPKMKIGHTGLCVAHTHMHRFYYLHSFKKYDYRDVGAACVFLAGKSQECPRKLSHVISVWRERKDRKQLTTETARNEAAQIIVLLESMILQTIAFDLNVHLPHIYVLDIMKKVDKKEHYRPLTSCAYYFATDVIAVTDWSLRYSAASMSIVIIHLMAAYANVRIERLFADFINEDSPWYAKFDETMTNEKLREMEVDFLVTYRNSCQFHHASKFNFREHRPMLENPDVRKLDRTRDARSHSPMVHHVPDSTVNVRPRAYVPRDELTVERLNKERGVEEERRKRERDRMAGKLDSSTSSEKRARIDPLANNFVSSSSSSNGKLAPPPIPPQLNFPPPPIVSSGYNHKNQINRKNHENNHTNSSVSPAFVPSARTFDVAPMLTPPTAPKLQSADNSDMDLEDGELE” was “not soluble”.

For the sequence “MGSDKIHHHHHHMQIDSSILGALRCFEAAGRLLSFTKAAESLNLTQSAVSQQIRHLEDRLGYVLFVRQPRSLKLTPQGEVLFETTTRALHDIQQTIQRLGMPNAPLQVNCLPSFALQWLMPRLTDFHREQPDVSVRLKAEFQALDRQSMDTEDIDVAVRYDPVRYSRLHADVLLDEYLIPVATPEYLAEHRELAEGTSLDGVVLLHDASPWVGAAEFVEWRTWLEAFHPTWMAHLEGPQFNLSSLAISAALNHQGVAMGRTALVYDEIRSGRLVNVFRQHVRAPARYMLLSRNPDDRRVTIFSAWLKAECARFDAMRMETLSRDR”, the “soluble on expression in E. coli” value was “not soluble”.

Regarding “MKGSASTKPGGSPSTSRTAHPARANTSGNASTSGKQPQGPRAPVHAKGKPKRGGAEAEATESDKVAYTVIITNVENDFGKLHRACLPYYCGLRSDYEGTLDVERLLHEGGPQSRRLIGAVRGCSYAVRCRTETRSAEISLYGPANADFAPMQLTKAPRRPSTPAADAKSMAAPTTSSSEKLAQKDTTAPAEDVSEETALANVGAVEQLALRLRRQHYFEEHLPVSVHLPGRKADEVLLRIDKGSASSDADGTNATGVKNEEANGVAEDADADRRGSAATPVTASASREKRQRVVEEDRNADAPSLQRVKAEAPDGDEEGTEEDSATAHERGKTTENDVDRRADNGGRRSRRLTKSKSATIIAQFPRRQKDFVTAVAALSSRVPLQRVRGRLRDLPGFLSCWSLYERHLRVVFRDAESLFKAKQLLDQFELEPGLRVSLIFSDPLSRTNAEYLRAQENESVNE”, the “soluble on expression in E. coli” value is on record as “not soluble”.

Turning to “MGSDKIHHHHHHMSDLLEWQDLAQLPVSIFKDYVTDAQDAEKPFIWTEVFLREINRSNQEIILHIWPMTKTVILGMLDRELPHLELAKKEIISRGYEPVVRNFGGLAVVADEGILNFSLVIPDVFERKLSISDGYLIMVDFIRSIFSDFYQPIEHFEVETSYCPGKFDLSINGKKFAGLAQRRIKNGIAVSIYLSVCGDQKGRSQMISDFYKIGLGDTGSPIAYPNVDPEIMANLSDLLDCPMTVEDVIDRMLISLKQVGFNDRLLMIRPDLVAEFNRFQAKSMANKGMVSRDE”, the “soluble on expression in E. coli” value is listed as “not soluble”.

(Values after the DeepSol protein solubility set.)
